Measurements taken from paper PMC2673414 (Nucleic Acids Research, 2009).

Target: the molecule itself
Assay: crystal structure

B1: human TREX2 protein (enzyme)
chain: MSEAPRAETFVFLDLEATGLPSVEPEIAELSLFAVHRSSLENPEHDESGALVLPRVLDKLTLCMCPERPFTAKASEITGLSSEGLARCRKAGFDGAVVRTLQAFLSRQAGPICLVAHNGFDYDFPLLCAELRRLGARLPRDTVCLDTLPALRGLDRAHSHGTRARGRQGYSLGSLFHRYFRAEPSAAHSAEGDVHTLLLIFLHRAAELLAWADEQARGWAHIEPMYLPPDDPSLEA
B1: binds.
